Data from the supplement of paper PMC10126150.
± gives the standard deviation of the averaged measurements.

The sequences below were run on ATP (assay: switch fluorescence ratio, 500 uM ATP over buffer (Cy3 cluster intensity, sum of 5 cycles each) (fold (ratio)); higher = stronger signal-on switching upon ATP binding; sequences stand for … in TCGTCGGCAGCGTCAGATGTGTATAAGAGACAGTTTTTTTTTTTTTTTTTTTTTTTTT…TC). Settings: aptamer strand: ATP DNA aptamer (quencher-CACCTGGGGGAGTATTGCGGAGGAAGG + anchor), 100 nM annealed; ATP concentration: 500 uM.
In short: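 Between each of five buffer/ATP cycles, the flow-cell was stripped with NaOH and re-annealed. Each cycle imaged Cy3-labelled switching-strand clusters, annealed to 100 nM quencher-labelled ATP aptamer on a modified Illumina MiSeq flow-cell, first in selection buffer and then after 15 min with 500 uM ATP at 22 °C. The fluorescence ratio is summed target-cycle over summed buffer-cycle Cy3 intensity per cluster, averaged per switch-domain sequence, with clusters outside 100-1000 RFU excluded.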
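Also: ATP exposure 15 min at 22 °C before imaging.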

Row | Sequence | switch fluorescence ratio
1 | GGGTCTAGCG | 1.01 ± 0.0065
2 | GGGATAGGGC | 1.04 ± 0.054
3 | ACGGCATCAT | 1.076 ± 0.0017
4 | ATTTTGTGTA | 1.005 ± 0.004
5 | AAAAAAGAAA | 0.982 ± 0.015
6 | AAGCCAAGAG | 1.05 ± 0.027
7 | GTGTTTAGCT | 0.992 ± 0.044
8 | CGGGGCAGCT | 1.1 ± 0.11
9 | AACCTCTATT | 1.03 ± 0.015
10 | ATTTAGTCGA | 0.9519 ± 0.001
11 | ATTTGGTGTA | 0.968 ± 0.0098
12 | CTCGGGGGGG | 0.998 ± 0.028
13 | ACTATAGGAC | 1.07 ± 0.017
14 | ATAGGGGGGA | 1.01 ± 0.018
15 | ACTGATGGAC | 1.06 ± 0.027
16 | TTATCGGATT | 0.983 ± 0.029
17 | CTAGAGGCGA | 1.03 ± 0.026
18 | AATCGCTCTG | 1.01 ± 0.027
19 | GGGGCACAGC | 1 ± 0.016
20 | ATGTCATGCG | 1.02 ± 0.045
21 | TGAAGTCGAC | 1 ± 0.068
22 | GGGTTTGAT | 1.03 ± 0.025
23 | TAAAAGACGG | 1.08 ± 0.056

Row | Sequence | switch fluorescence ratio
24 | AGGGGAAGGA | 1 ± 0.049
25 | GGAAAATTCT | 1.01 ± 0.013
26 | ATTGTTGGTT | 0.974 ± 0.019
27 | GTGTGCAACT | 1.02 ± 0.024
28 | AAGTAATGGA | 1.04 ± 0.06
29 | ACTTTTGGGG | 1.005 ± 0.0023
30 | AGAGGGTTTG | 0.998 ± 0.025
31 | CAGGCATGAG | 1.01 ± 0.011
32 | AAAGGGTAAC | 0.988 ± 0.036
33 | CCAGAAGGGT | 0.974 ± 0.02
34 | TTTGTCATGG | 1.04 ± 0.037
35 | TTTGTCGCAT | 1.14 ± 0.067
36 | GCCTGGGGGG | 1.02 ± 0.042
37 | TCAGTGAGTG | 1 ± 0.033
38 | GGGGCACGTG | 0.995 ± 0.015
39 | CAATGCGGAG | 1 ± 0.015
40 | TTCCCGTGGG | 1 ± 0.011
41 | CAAGATTGCC | 1 ± 0.034
42 | AGGGCCTTAG | 0.9733 ± 0.009
43 | AGGGGACGCC | 0.9928 ± 0.0049
44 | CTAATGATTG | 0.957 ± 0.027
45 | TATGCCATTT | 1.0337 ± 0.00046
46 | TGCATAATCT | 1.04 ± 0.026

Row | Sequence | switch fluorescence ratio
47 | CGGGTTATGG | 0.981 ± 0.049
48 | TAGTTACACG | 1.01 ± 0.025
49 | ATCGGAAGAA | 1.01 ± 0.017
50 | ACTTTTAAGG | 0.983 ± 0.024
51 | GGCTGTTATT | 0.986 ± 0.039
52 | AGCTATCAGC | 1.01 ± 0.047
53 | CGAGTACGGT | 0.979 ± 0.028
54 | TTTTATGCGG | 0.974 ± 0.019
55 | AGGGCGTCTA | 1.015 ± 0.003
56 | GCTTGAGTTA | 0.9852 ± 0.0077
57 | TACCTAGTGC | 1.035 ± 0.0016
58 | TTGGGGCAAA | 1.06 ± 0.061
59 | ATGGATATAT | 0.995 ± 0.016
60 | CTTATTATGG | 0.975 ± 0.021
61 | CCTGGGACCA | 0.975 ± 0.0064
62 | CCAAATCAGA | 0.986 ± 0.021
63 | TGGTATAGGT | 0.994 ± 0.038
64 | ATATGTCGCT | 1.01 ± 0.026
65 | CCATCTCTGG | 0.979 ± 0.022
66 | GCGTGAGTTG | 0.9783 ± 0.0085
67 | AACGTACTGG | 1.52 ± 0.095
68 | TCGGTGTGAG | 1.01 ± 0.03
69 | TTTTGGAAAG | 0.987 ± 0.013

Row | Sequence | switch fluorescence ratio
70 | GAATGGCATG | 0.991 ± 0.034
71 | AAAGCTCGTA | 1.06 ± 0.054
72 | TTCAAGATTT | 0.974 ± 0.022
73 | ATGGTCCGAG | 0.998 ± 0.018
74 | TGGGTCTCTA | 1 ± 0.018
75 | ATCGACGGGG | 1.01 ± 0.01
76 | TGTGTGCGGT | 0.997 ± 0.054
77 | TAGGGTCTCA | 1 ± 0.031
78 | GGGATACTTT | 1.5 ± 0.73
79 | ATGTAGGCGT | 0.967 ± 0.021
80 | ACGACGAAGG | 1.06 ± 0.083
81 | ATGTTTCAGG | 0.997 ± 0.018
82 | TCGCGGGGGA | 1.01 ± 0.037
83 | ACTGGCTGTT | 1.03 ± 0.035
84 | GCGGGGCCAG | 0.982 ± 0.011
85 | AGCGATGTCG | 0.9885 ± 0.0014
86 | CAGGATGGGC | 0.977 ± 0.027
87 | TGGGAGACGG | 1.2 ± 0.38
88 | TAGGGTTGGC | 0.969 ± 0.013
89 | TTTCGTAAAA | 1.002 ± 0.0057
90 | ATAAAAAATC | 0.986 ± 0.017
91 | ACTTCGAATA | 1.36 ± 0.07
92 | ACTTTATGCT | 1.01 ± 0.024

Row | Sequence | switch fluorescence ratio
93 | CAGGACTTGC | 0.995 ± 0.03
94 | TTGCAAAACT | 1.32 ± 0.51
95 | GCTTAAATTT | 1 ± 0.016
96 | AGACTGCCTG | 0.971 ± 0.077
97 | TTTTTAGCTG | 1.04 ± 0.058
98 | CGACTACCTT | 1.21 ± 0.016
99 | AAACATACCT | 1.4 ± 0.078
100 | GCCGGAAAAC | 2.35 ± 0.2
101 | TCGGCTATGA | 1.03 ± 0.021
102 | ATAGTCCTCC | 1.2 ± 0.0043
103 | ATGGAGAGAG | 0.9929 ± 0.004
104 | AGGCTCTAAG | 1.01 ± 0.011
105 | TCAACAACCA | 1.06 ± 0.017
106 | GCTGAATTGG | 1.04 ± 0.053
107 | GTTTAAGGCT | 1.02 ± 0.088
108 | CATGCAGGGT | 1.04 ± 0.016
109 | ATGATCGGGT | 1.02 ± 0.031
110 | GGGATACTAG | 1.01 ± 0.02
111 | AAGTGGTGGT | 0.989 ± 0.011
112 | AGGGTCGGAT | 0.972 ± 0.033
113 | ATTGGCCCAT | 0.9642 ± 0.0017
114 | CCAGAGGAAT | 1.043 ± 0.0079
115 | TAGTCGTTAG | 1 ± 0.037

Row | Sequence | switch fluorescence ratio
116 | AAGCTGTGCA | 0.99 ± 0.038
117 | GGGGTGAGGA | 0.981 ± 0.037
118 | TGTCCACTAC | 2.78 ± 2.3
119 | TGGTGTTGCT | 0.9797 ± 0.0068
120 | TAAGAAGTCG | 0.9751 ± 0.0023
121 | GGGGAAATTT | 1.02 ± 0.028
122 | TTCGTGTATT | 1 ± 0.025
123 | TAGCGCTCTA | 0.999 ± 0.024
124 | TTGAGCCA | 1.01 ± 0.025
125 | TTGCTTTAAT | 0.988 ± 0.019
126 | TATGACGGGG | 0.962 ± 0.014
127 | CCGGCGCGTT | 1.96 ± 1.3
128 | GGTACTGGGA | 0.997 ± 0.0025
129 | TACGTATTTA | 1.13 ± 0.0012
130 | TTTCAGGTTT | 0.983 ± 0.033
131 | GCAGGGATGA | 0.994 ± 0.0052
132 | AGACGAAAGA | 1.02 ± 0.027
133 | ATGATGGGT | 1.01 ± 0.028
134 | GCGGGTTTTC | 1.03 ± 0.017
135 | ATGTTCTGGG | 1.04 ± 0.029
136 | CCGTTTTCGG | 0.952 ± 0.053
137 | GTTGGGTGGA | 1.0356 ± 0.00032
138 | ATGATTTAAC | 0.976 ± 0.035

Row | Sequence | switch fluorescence ratio
139 | TTTGGCTGGA | 1.04 ± 0.072
140 | TAACATGAAG | 1.004 ± 0.0073
141 | TGAGTAAGGA | 1.03 ± 0.034
142 | GGGTAGAAGT | 0.988 ± 0.023
143 | CATTCATTGA | 0.998 ± 0.049
144 | TGCGGGGGCT | 1.002 ± 0.0025
145 | TTTGAAGCAT | 1 ± 0.061
146 | ATTTACTAGA | 1.004 ± 0.0042
147 | GCACATGGCA | 1.02 ± 0.015
148 | TTCATCAGCG | 1.05 ± 0.083
149 | ACTTTGGGCA | 0.99606 ± 0.00098
150 | GGTTTACGGC | 1 ± 0.016
151 | AGCCTGATCT | 1.036 ± 0.0053
152 | AGTAGGCGGT | 0.993 ± 0.023
153 | GCAAGAGATA | 1.02 ± 0.017
154 | GCTGGGAGGT | 0.984 ± 0.02
155 | GGGATAAGAG | 0.973 ± 0.029
156 | GTTTATCGCT | 1.023 ± 0.0077
157 | CACTGGGGTG | 1.04 ± 0.038
